Assay results from US20140363428A1 (Chugai, published 2014).
Changes are numbered by the printed parent chain. In names and notes the source's numbering stands. One block for each binder: values may come before it.

Key:
soluble human FcRn [1] = target: T1, soluble human FcRn (human, UniProt P55899 24-297; P61769 21-119); assay: SPR (Biacore), pH 7.0
T1 construct: Heterodimer of alpha chain and beta2-microglobulin; also called hFcRn

soluble human FcRn [2] = target: T1, soluble human FcRn; assay: SPR (Biacore), pH 6.0
soluble human FcRn [3] = target: T1, soluble human FcRn; assay: SPR (Biacore), pH 7.0; remark: listed apart in the source
soluble human FcRn [4] = target: T1, soluble human FcRn; assay: SPR (Biacore), pH 6.0; remark: listed apart in the source
soluble human FcRn [5] = target: T1, soluble human FcRn; assay: SPR (Biacore), pH 7.0; remark: listed apart in the source

B2: Fv-4-F1380 (antibody, human IgG1, kappa)
heavy: QVQLQESGPGLVKPSETLSLTCAVSGHSISHDHAWSWVRQPPGEGLEWIGFISYSGITNYNPSLQGRVTISRDNSKNTLYLQMNSLRAEDTAVYYCARSLARTTAMDYWGEGTLVTVSSASTKGPSVFPLAPSSKSTSGGTAALGCLVKDYFPEPVTVSWNSGALTSGVHTFPAVLQSSGLYSLSSVVTVPSSSLGTQTYICNVNHKPSNTKVDKKVEPKSCDKTHTCPPCPAPELLGGPSVFLFPPKPKDTLMISRTPEVTCVVVDVSHEDPEVKFNWYVDGVEVHNAKTKPREEQYNSTYRVVSVLTVLHQDWLNGKEYKCKVSNKALPAPIEKTISKAKGQPREPQVYTLPPSRDELTKNQVSLTCLVKGFYPSDIAVEWESNGQPENNYKTTPPVLDSDGSFFLYSKLTVDKSRWQQGNVFSCDVLHEALHSHYTQKSLSLSP
light: DIQMTQSPSSLSASVGDSVTITCQASTDISSHLNWYQQKPGKAPELLIYYGSHLLSGVPSRFSGSGSGTDFTFTISSLEAEDAATYYCGQGNRLPYTFGQGTKVEIERTVAAPSVFIFPPSDEQLKSGTASVVCLLNNFYPREAKVQWKVDNALQSGNSQESVTEQDSKDSTYSLSSTLTLSKADYEKHKVYACEVTHQGLSSPVTKSFNRGEC
- Kd (soluble human FcRn [2]): 73 nM

B4: Fv-4-F1383 (antibody, human IgG1, kappa)
heavy: B2 heavy with D428R
light: B2 light
- Kd (soluble human FcRn [2]): 160 nM

B5: Fv-4-F1097 (antibody, human IgG1, kappa)
heavy: B2 heavy with M254Y, G387N, P389S, D428S, L430M, S436Y
light: B2 light
- Kd (soluble human FcRn [1]): 280 nM

B6: Fv-4-F1166 (antibody)
heavy: B2 heavy with M254Y, S256T, T258E, D428S, L430M, S436N, Q440R, S442E
light: B2 light
- Kd (soluble human FcRn [4]): 210 nM

B9: Fv-4-F1079 (antibody, human IgG1, kappa)
heavy: B2 heavy with M254Y, E384N, N386S, D428S, L430M, S436Y
light: B2 light
- Kd (soluble human FcRn [1]): 340 nM

B11: Fv-4-N434H (antibody, human IgG1, kappa)
heavy: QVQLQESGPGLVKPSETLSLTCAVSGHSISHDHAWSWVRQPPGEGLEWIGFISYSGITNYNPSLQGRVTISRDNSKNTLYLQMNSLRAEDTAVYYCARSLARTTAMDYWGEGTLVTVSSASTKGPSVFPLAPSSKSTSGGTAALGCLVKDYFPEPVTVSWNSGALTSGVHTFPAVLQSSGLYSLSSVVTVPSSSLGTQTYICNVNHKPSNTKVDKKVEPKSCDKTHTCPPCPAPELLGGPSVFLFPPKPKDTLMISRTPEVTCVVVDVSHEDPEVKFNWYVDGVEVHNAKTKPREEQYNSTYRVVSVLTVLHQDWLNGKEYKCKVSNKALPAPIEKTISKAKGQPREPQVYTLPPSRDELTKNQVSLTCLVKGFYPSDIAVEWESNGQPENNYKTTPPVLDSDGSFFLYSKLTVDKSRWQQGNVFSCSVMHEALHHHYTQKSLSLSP
light: B2 light
- Kd (soluble human FcRn [4]): 430 nM

B18: Fv-4-F1269 (antibody)
heavy: B2 heavy with L237R, S241K, M254Y, D428S, L430M, H435D, S436Y, Y438V, Q440K, S442D
light: B2 light
- Kd (soluble human FcRn [3]): 170 nM

B19: Fv-4-F1392 (antibody, human IgG1, kappa)
heavy: B2 heavy with D428S, Y438K
light: B2 light
- Kd (soluble human FcRn [2]): 270 nM

B20: Fv-4-F1389 (antibody, human IgG1, kappa)
heavy: B2 heavy with D428S, Y438T
light: B2 light
notes: M428L/N434S/Y436T (EU)
- Kd (soluble human FcRn [2]): 68 nM

B21: Fv-4-F1385 (antibody, human IgG1, kappa)
heavy: B2 heavy with D428Q
light: B2 light
- Kd (soluble human FcRn [2]): 77 nM

B23: Fv-4-F1167 (antibody, human IgG1, kappa)
heavy: B2 heavy with M254Y, S256T, T258E, S426N, D428S, L430M, S436N
light: B2 light
- Kd (soluble human FcRn [4]): 250 nM

B24: Fv-4-F1081 (antibody, human IgG1, kappa)
heavy: B2 heavy with M254Y, D428S, L430M, S436Y, Y438N, Q440T
light: B2 light
notes: additional N-glycosylation found (++)
- Kd (soluble human FcRn [1]): 620 nM

B26: Fv-4-F1384 (antibody, human IgG1, kappa)
heavy: B2 heavy with D428A
light: B2 light
- Kd (soluble human FcRn [2]): 86 nM

B28: Fv-4-F1388 (antibody, human IgG1, kappa)
heavy: B2 heavy with D428S, Y438F
light: B2 light
- Kd (soluble human FcRn [2]): 80 nM

B29: Fv-4-F1245 (antibody)
heavy: QVQLQESGPGLVKPSETLSLTCAVSGHSISHDHAWSWVRQPPGEGLEWIGFISYSGITNYNPSLQGRVTISRDNSKNTLYLQMNSLRAEDTAVYYCARSLARTTAMDYWGEGTLVTVSSASTKGPSVFPLAPSSKSTSGGTAALGCLVKDYFPEPVTVSWNSGALTSGVHTFPAVLQSSGLYSLSSVVTVPSSSLGTQTYICNVNHKPSNTKVDKKVEPKSCDKTHTCPPCPAPELRGGPKVFLFPPKPKDTLYITREPEVTCVVVDVSHEDPEVKFNWYVDGVEVHNAKTKPREEQYNSTYRVVSVLTVLHQDWLNGKEYKCKVSNKALPAPIEKTISKAKGQPREPQVYTLPPSRDELTKNQVSLTCLVKGFYPSDIAVEWESNGQPENNYKTTPPVLDSDGSFFLYSKLTVDKSRWQQGNVFSCSVMHEALHYHVTRKELSLSP
light: B2 light
notes: L235R/S239K/M252Y/S254T/T256E/N434Y/Y436V/Q438R/S440E (EU)
- Kd (soluble human FcRn [3]): 82 nM

B31: Fv-4-F1171 (antibody, human IgG1, kappa)
heavy: B2 heavy with S426N, D428S
light: B2 light
- Kd (soluble human FcRn [4]): 240 nM

B32: Fv-4-F1083 (antibody)
heavy: B2 heavy with M254Y, D428S, L430M, S436Y, S442N
light: B2 light
- Kd (soluble human FcRn [1]): 350 nM

B33: Fv-4-F1321 (antibody)
heavy: B29 heavy with E258T, R440K
light: B2 light
- Kd (soluble human FcRn [3]): 100 nM

B34: Fv-4-F1386 (antibody, human IgG1, kappa)
heavy: B2 heavy with D428Y
light: B2 light
- Kd (soluble human FcRn [2]): 160 nM

B35: Fv-4-F1078 (antibody, human IgG1, kappa)
heavy: B2 heavy with M254Y, E382N, E384S, D428S, L430M, S436Y
light: B2 light
- Kd (soluble human FcRn [1]): 470 nM

B38: Fv-4-F1080 (antibody, human IgG1, kappa)
heavy: B2 heavy with M254Y, S426N, D428S, L430M, S436Y
light: B2 light
notes: as for B24
- Kd (soluble human FcRn [1]): 320 nM

B39: Fv-4-F1096 (antibody, human IgG1, kappa)
heavy: B2 heavy with M254Y, Q388T, D428S, L430M, S436Y
light: B2 light
- Kd (soluble human FcRn [1]): 270 nM

B40: Fv-4-F1094 (antibody)
heavy: B2 heavy with M254Y, D428S, L430M, S436Y, S444N
light: B2 light
- Kd (soluble human FcRn [1]): 260 nM

Results, then the binder that gave them:

- Kd (soluble human FcRn [1]): 330 nM
B1: Fv-4-F11 (antibody, human IgG1, kappa)
heavy: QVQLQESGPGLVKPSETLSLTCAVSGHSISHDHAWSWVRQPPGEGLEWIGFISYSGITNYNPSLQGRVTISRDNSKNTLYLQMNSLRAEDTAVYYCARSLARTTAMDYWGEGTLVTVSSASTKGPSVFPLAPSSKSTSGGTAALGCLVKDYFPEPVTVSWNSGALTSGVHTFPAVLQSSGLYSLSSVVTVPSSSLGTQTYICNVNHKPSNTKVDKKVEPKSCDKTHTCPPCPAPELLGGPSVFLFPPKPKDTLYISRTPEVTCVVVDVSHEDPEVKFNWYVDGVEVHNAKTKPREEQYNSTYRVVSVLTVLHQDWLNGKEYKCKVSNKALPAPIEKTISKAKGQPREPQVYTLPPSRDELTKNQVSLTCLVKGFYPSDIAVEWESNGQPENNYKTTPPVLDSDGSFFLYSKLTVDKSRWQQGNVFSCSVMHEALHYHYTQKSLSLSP
light: B2 light
notes: M252Y/N434Y (EU)

- Kd (soluble human FcRn [3]): 200 nM
B3: Fv-4-F1268 (antibody)
heavy: B29 heavy with T256S, E258T, H435D
light: B2 light

- Kd (soluble human FcRn [3]): 150 nM
B7: Fv-4-F1291 (antibody, human IgG1, kappa)
heavy: B29 heavy with T256S, E258T, H435D, R440Q, E442S
light: B2 light

- Kd (soluble human FcRn [3]): 150 nM
B8: Fv-4-F1323 (antibody)
heavy: B29 heavy with E258T, H435D, R440K
light: B2 light

- Kd (soluble human FcRn [2]): 420 nM
B10: Fv-4-F1391 (antibody, human IgG1, kappa)
heavy: B2 heavy with D428S, Y438N
light: B2 light

- Kd (soluble human FcRn [1]): 2000 nM
B12: Fv-4-F1077 (antibody, human IgG1, kappa)
heavy: B2 heavy with K250N, M254Y, D428S, L430M, S436Y
light: B2 light
notes: as for B24

- Kd (soluble human FcRn [3]): 150 nM
B13: Fv-4-F939 (antibody, human IgG1, kappa)
heavy: B29 heavy with T256S, E258T, R440Q, E442S
light: B2 light

- Kd (soluble human FcRn [3]): 56 nM
B14: Fv-4-F1340 (antibody)
heavy: B29 heavy with R440K
light: B2 light

- Kd (soluble human FcRn [4]): 400 nM
B15: Fv-4-F1172 (antibody)
heavy: B2 heavy with D428S, L430M, S436H, Q440R, S442E
light: B2 light

- Kd (soluble human FcRn [5]): 130 nM
B16: Fv-4-F1115 (antibody, human IgG1, kappa)
heavy: B2 heavy with M254Y, S426N, D428S, L430M, S436Y, Y438V
light: B2 light

- Kd (soluble human FcRn [2]): 86 nM
B17: Fv-4-F1381 (antibody, human IgG1, kappa)
heavy: B2 heavy with D428E
light: B2 light

- Kd (soluble human FcRn [1]): 280 nM
B22: Fv-4-F1082 (antibody, human IgG1, kappa)
heavy: B2 heavy with M254Y, D428S, L430M, S436Y, Q440N
light: B2 light
notes: additional N-glycosylation found (+)

- Kd (soluble human FcRn [4]): 530 nM
B25: Fv-4-F1173 (antibody, human IgG1, kappa)
heavy: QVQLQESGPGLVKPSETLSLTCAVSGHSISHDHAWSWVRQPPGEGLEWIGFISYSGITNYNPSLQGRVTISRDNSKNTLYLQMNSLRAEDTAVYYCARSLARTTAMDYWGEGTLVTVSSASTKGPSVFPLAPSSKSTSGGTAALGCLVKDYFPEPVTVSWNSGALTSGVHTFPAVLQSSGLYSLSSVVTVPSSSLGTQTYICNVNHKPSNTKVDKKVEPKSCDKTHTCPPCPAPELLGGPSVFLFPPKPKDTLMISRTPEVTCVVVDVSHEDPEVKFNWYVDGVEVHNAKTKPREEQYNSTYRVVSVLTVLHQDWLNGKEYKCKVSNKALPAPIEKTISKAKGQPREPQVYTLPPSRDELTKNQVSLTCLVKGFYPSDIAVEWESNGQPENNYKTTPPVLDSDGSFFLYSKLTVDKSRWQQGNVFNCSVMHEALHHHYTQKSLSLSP
light: B2 light

- Kd (soluble human FcRn [2]): 130 nM
B27: Fv-4-F1382 (antibody, human IgG1, kappa)
heavy: B2 heavy with D428K
light: B2 light

- Kd (soluble human FcRn [1]): 290 nM
B30: Fv-4-F1095 (antibody, human IgG1, kappa)
heavy: B2 heavy with M254Y, S385N, G387S, D428S, L430M, S436Y
light: B2 light

- Kd (soluble human FcRn [3]): 130 nM
B36: Fv-4-F1243 (antibody)
heavy: B29 heavy with E258T
light: B2 light
notes: L235R/S239K/M252Y/S254T/N434Y/Y436V/Q438R/S440E (EU)

- Kd (soluble human FcRn [2]): 400 nM
B37: Fv-4-F1390 (antibody, human IgG1, kappa)
heavy: B2 heavy with D428S, Y438H
light: B2 light
